Measured values as given in the DeepSol protein solubility set.

test: soluble on expression in E. coli; label from the status in PepcDB or PDB records

| Sequence | soluble on expression in E. coli |
| --- | --- |
| MSRSLLTNETSELDLLDQRPFEQTDFDILKSYEAVVDGLAMLIGSHCEIVLHSLQDLKCSAIRIANGEHTGRKIGSPITDLALRMLHDMTGADSSVSKCYFTRAKSGVLMKSLTIAIRNREQRVIGLLCINMNLDVPFSQIMNTFIPPETPEVGSAVNFASSVEDLVTQTLEFTIEEVNADRNVSNNAKNRQIVLNLYEKGIFDIKDAINQVADRLNISKHTVYLYIRQFKSGDFQGQDK | not soluble |
| MKIMAICGSGLGSSFMVEMNIKKVLKKLNIDAEVEHSDLSSATPGAADLFVMAKDIAASASVPESQLVVINNIIDINELETQLRAWFAKQ | not soluble |
| MAAGSMDGIFRNIFEGCISSCDSSIQRRPYHKNCGCALHERSRGGGSATPCRHGRSEVVMFPIQRSWSEGNSLALHLASSSSSSNLQSLSSSSSISTLASLSSTVSDIDSPI | soluble |
| INIEIAYAFPERYYLKSFQVDEGITVQTAITQSGILSQFPEIDLSTNKIGIFSRPIKLTDVLKEGDRIEIYRPLLADPKEIRRK | not soluble |
| MTPSPEASEGPCVSKLRNEPLGALTPYVGVVDGPEVKKSKKIHGGDSAILGTYKMQSRFNRGVLLMVNIMDYPDQNRRRIGAEKDSKSLIHLFQELNFTIFPYGNVNQDQFFKLLTMVTSSSYVQNTECFVMVLMTHGNSVEGKEKVEFRDGSVVDMQKIKDHFQTAKCPYLVNKPKVLMFPFARGDEYDLGHPKNQGNLMEPVYTAQEEKWPDTQTEGIPSPSTNVPSLADTLVCYANTPGYVTHRDLDTGSWYIQKFCQVMADHAHDTDLEDILKKTSEAVGNKRTKKGSMQTGAYDNLGFNKKLYFNPGFFNE | soluble |
| MKDKVYKRPVSILVVIYAQDTKRVLMLQRRDDPDFWQSVTGSVEEGETAPQAAMREVKEEVTIDVVAEQLTLIDCQRTVEFEIFSHLRHRYAPGVTRNTESWFCLALPHERQIVFTEHLAYKWLDAPAAAALTKSWSNRQAIEQFVINAA | soluble |
| MIGVGKMKQYSNVLDKPLSKGKQEVSLTAFAFLFSELVQYNQTQVDNIAELERRLEDAGYAVGSRVLELLCNREKGNRRETRLLGILSFVHSTVWKVLFGKVADSLEKGTEHEDEYMISEKELLVNRFISIPKDMGTFNCGAFVAGIVKGVLDNAGFPAVVTAHFVPIEGQQRPRTTILIKFADEVLKREARLSQ | soluble |
| MKFETINQESIAKLMEIFYEKVRKDKDLGPIFNNAIGTSDEEWKEHKAKIGNFWAGMLLGEGDYNGQPLKKHLDLPPFPQEFFEIWLKLFEESLNIVYNEEMKNVILQRAQMIASHFQNMLYKYGGH | soluble |
| MGHHHHHHSHMNKILIAAASSGTGKTTVTLGIMHALKKRGLRVQPFKVGPDYIDTNYHQAITGVASINLDSFLIDDDAMLAALFEKHGQSADISVIEGVMGLFDGLGIDRDNSSTSFIAKCTKTPVILVVDGKAISTSAAAIVDGFNRFDPELTIAGVIINRVASENHFSLIKGAIERYTDVPVLGYLPKNAAVALPERHLGLVPKEEMTELETKWEVLGDLIAEHVDLDRLLAISKTG | not soluble |
| MDRVLSRADKERLLELLKLPRQLWGDFGRMQQAYKQQSLLLHPDKGGSHALMQELNSLWGTFKTEVYNLRMNLGGTGFQ | soluble |
| MIVNKPQFDENELGEGTAVQVTSGNPFGRPNYSNNKHDWNAVVVEFSPLMISVAGYNKEEHDRVETMNITIDSIVKEHVTLKKLVVELPKIQCEAGPEND | not soluble |
| MPSLFKRSLLPKLRSFPLAAEAFTTLTGAAQFRRTLLEQIAQARRRIYIVALYLQQDEAGQEILDALHAAKAARPELEVVVVVDWLRAQRGLIGAGKQPGNSAWYQQMTRTHASEVPIYGVPVQTRELFGVLHLKGFIIDDCVLYSGASLNNVYLHKFDKYRFDRYHLLHNQALADSMHHLVQHGLVESRAVHRLDLPNLPTTRSLRNDIGDLRSRLKHATYDTTAGGLDKSGLSVSPLLGVGKGNPLNRVICELIAGAQRQLTICTPYFNLPLPVTREINRALERGVKIDIIVGDKTANDFYIPPSEPFKVIAALPYLYEISLRRFAKRHQKVIDNGQLNLHLWRDGDNTYHLKGMWVDERYTLLTGNNLNPRAFRLDLENALLLDDPKGELLQARNAEQAEIYRHTRRIEHFQYLDSLVDYPEAVGKFLRRVSRVRIERLLYRMLLEHHHHHH | not soluble |
| RTHSGEKPYECYICHARFTQSGTMKMHILQKHTENVAKFHCPHCDTVIARKSDLGVHLRKQHSY | soluble |
| MSLGDQTLVRELSPLKNKGESTFRMGLYIRDSAAGVGTLTFYDPVSKKYGALGHVISDVDTKKPIVVHDGQIIRSSVTSIDKGSNGDPGEKLASFSNQRNTLGTIEKNSSFGIFGTLTEKDLKNHVSDEALPVTLSNHVKEGPAKILTVVEGEKVEEFDIEIVSSVPQKQPATKGLVIKVTDPKLLNTTGGIVQGMSGSPIIQDGKLVGAVTHVFVNDPTSGYGCHISWMLEEAGITFDQSKAKASEGHHHHHH | soluble |
| MGSDKIHHHHHHMPGFNSSPASEKSSLLRQHFPLVTIPEYNSWDPDIAYIQLEQAILPLLNQGVLLTGSSLGGFWAYQFACRYRQPCLLINPCMHPELSLQRYIGKVENFYSHEQGWLTEAHLGKYAAYRVNGQPSRLTVLHEQGDELIPYMESVVNFSGKAKLILPGGGHHRFARTDLIAACIRDMLPPEDAGHQKA | not soluble |
| VSELSVATGAVSTASSSIPMPAGVNPADLAAELAAVVTESVDEDYLLYECDGQWVLAAGVQAMVELDSDELRVIRDGVTRRQQWSGRPGAALGEAVDRLLLETDQAFGWVAFEFGVHRYGLQQRLAPHTPLARVFSPRTRIMVSEKEIRLFDAGIRHREAIDRLLATGVREVPQSRSVDVSDDPSGFRRRVAVAVDEIAAGRYHKVILSRCVEVPFAIDFPLTYRLGRRHNTPVRSFLLQLGGIRALGYSPELVTAVRADGVVITEPLAGTRALGRGPAIDRLARDDLESNSKEIVEHAISVRSSLEEITDIAEPGSAAVIDFMTVRERGSVQHLGSTIRARLDPSSDRMAALEALFPAVTASGIPKAAGVEAIFRLDECPRGLYSGAVVMLSADGGLDAALTLRAAYQVGGRTWLRAGAGIIEESEPEREFEETCEKLSTLTPYLVARQ | soluble |
| MGHHHHHHSHMDWTLAMAQESGVWSEAGQLALHSYLEGLHTLASCAPAPSLSAPRLKSCIQCVESQLLVVIMSVCMLVCQLRNVCVCVHAHACMYLFPVPSGSGCHFRLSALSPATSVPQPEREMRCSWTPHCIWAAGPELV | not soluble |
| SNAYTDESGLSELVNAAGEKLQDLELMGQKNAVRDFFKELIADSGKVAYGESQVRANLEINSVDVLLLSEDLRAERVTTKCSVCGYENKWTRRWKPGEPAPAAGNCPKCGSSLEVTDVTDIVDEFSELADKSNAKVVFVSTDFDEGSQLMNAFGGIAAILRYNTGV | soluble |
| MSLNLRESFISKFAASFVKPRFEIWFAAVLIPENDQAFWVRYSTLNPRNNRDLFPMGTLWVSLFDRKNPKNHRTTTQSFPYEEVLIKEHAIEFPEASVGPDHMSGKIQTSMSEDLAWDLEFRHKLEPTGHLPRWLEKTPINHIWGTNRVSELFWTFVPKFDDDPDDWSMEIVTVRPQPFTPTLTFVTLLKRGIPIHQHSIFRSLRSSTKIEYPKLHFKTRLDDYEISVESEMDKDQIAGYIYRDPDGSPRYIEQSDIGNVKCVIRHRRKETVLNAKQAAGVEFHGLRPWRKDHEYLDPYQTEGHHHHHH | not soluble |
| MTEQYYKIALLFNANKVYDRQVVEGIGQYIQASQCMWDIFVEDEFIYHTDTINQLSIDGIIADFDDPKTVELLQHTLIPTIAVGGSYKQADFYPHFPYIATDNMALVEMALSHLQEKGLSQFAFYGLQVNTHKHWSIERRDAFVELMEKNHYPIYLYEGVQVHAQNWLEEQQKLIVWLKSLPSHTGIIAVTDARARHLLQACEYSKIAVPEELCVVGIDNEELIQYLSRMSLSSVEQGTREIGYQAAKLLHKLLNGQKVSHTPILIPPITVHSRNSTDYRSLTDPLVIQAMHYIRHRACHRIKVGQVLDHLETSRSNLEQRFKNEMNKTIHQVIHEEKISRAKNLLQQTDISIKEITEICGYPSIQYFYSVFKKEFEMTPKEFRLNC | not soluble |
| MSLTAENILNRNFEANKPNQKWFTDISYLNYGKGQKAYISAIIDRYDLSIIVYKVSKRNDLKLVMDILKLALQNNDASNTILHSDRGFQYTSKHYKNYLDTHNVKISMSKAGSCLDNQPIEAFWGTLKSEYYYRNQFSTYEDLETGISEYINYYMNKRYVPKFDGLTPNEYRNVSEGHHHHHH | not soluble |
| KVMMPKVEERDDSEAPKAFFSEYEICNPALDGKSVREVALLLKRPFVITRVWHNGKVEIPTSDMILYFGDHILAVSGEEDTSQLEILFGKREMKDWNRPDIDWNSVDKQLVSRRLVITRPKLNGVRLGMLKIRNLYGVNISRVDRAGVELLPDRDLRLQLGDRLTVVGEGKAVERVAEILGDEVKQLDNPH | not soluble |
| GPGSMRGSDAMATHASRWRPPQNPAAVRKYSNETAAPQPPAKIIMEDHSLAEVFRRSAAFQRILAYVQGCSEAVESTPNHQRLSATVDDCDDTVRYLVTDYLPRLHDIVTAIPLEDMAQQRFGNRAKRVFHARLEETVVADMEKLVRTFPTSAGRSEEAITDMATEVAAYVMDSFGNATRLDYGSGHELHFFIVIMICLEEHGDGGGSLKDEPAVLVPLEVPPPPPVPPMERAEVRKRRQDYIFYIFHEYMRLVRRLQKRYSLEPAGSHGVWGLDDYHHIPYIFGGAQLINAEVQPVKPAAGQEAMLVLPKHICDRAKVEMLKDSYLYFSMIAWILENKTGPFHEHSNMLYNISGVEHWSKIYSGMVKMFAAEVLAKYNVSQHLLFGRHLPWNTKTM | soluble |
| MGSDKIHHHHHHMRKISIVIPVYNTEKYLKLSVDSVLSQSYQDWELILVDDGSKDGSGAICDKYASEDSRIKVYHTVNQGVTAARGYGVEQSTGEWICFLDADDTLADDALQVMLGKSADCDIVIGNKRIVSGNDVTEEWMNQDDRQLQAVEFLDGLIRNKISQYITGRIFRRILFDNGTICIPRELIMAEDFIMNVQLGNKAKKIAVIRDMVYGYHVYGESVSHTFRTNLEYESRFCDCLFSALKTGGYYEEVKEAFTFQKVRALKSAFMAQQGRVNLRHPFLQEVRKEAKSIGLSRGWKLFLYLLPLKYIGYIFFRSLNK | not soluble |
| MGSDKIHHHHHHMSNLQKVIVFGASGFLGEHIIKSLISENWDVYAAVRTKPESSTDGFNQTQVTYYEGDLEDQKYIQDAIAGMDAIIFSAGCTWKSDLEISEYYRRNVQITKNFFTALGDRPNVRIVYTSSMSVIAGSKSDYIFFEDSDRSQVSQNQLSPYDLAKIECEQIALDYAQRGNNLVILNPGNMLGPGVFNHSKITTSILVLWFCQKQFPFYINGGHSYCDVRDVAKAHVAALTRGRSGERYIVAGDNLDMASISSLLVKMTGFKMPQQLPASGVYLLSLLLESLSLLSFRLFKNPYHPDFVKSFALHYYANSQKAIKELAYNITPIETTLIDTIKYFGKRELLSEDLNFFALMTHSNIQSLIYLRQLASQHTFSQFLLSKISQIYGICQSNLSLNNVLDNLVNHSKFNIKTGKFQPDKTKCQEDLKSINQLFEYLYFASNDFLSEVI | not soluble |
